# Experimental data reported in patent US20250011363A1, “OPTIMIZED SHORTENED PEPTIDE THAT BINDS TO ACETYLCHOLINE RECEPTOR, AND USE THEREOF” (SKINMED CO., LTD., priority 2021, published 2025).
# Biological target: acetylcholine receptor
# Test: SPR, peptide at 10 uM, acetylcholine receptor immobilized on chip
row,Binder,Binding affinity (RU)
1,KDTKR [5mer-646],16
2,RTAWK [5mer-932],27
3,RPANR [5mer-631],17
4,KDSFK [5mer-948],18
5,RITER [5mer-931],11
6,RYMKK [5mer-933],27
7,RAWVR [5mer-930],20
8,KNKKR [5mer-648],15
9,KETWK [5mer-639],13
10,RMMMR [5mer-634],26
11,RITFR [5mer-630],30
12,KNHHR [5mer-941],21
13,RITWK [5mer-641],22
14,KNPHK [5mer-640],15
15,KDKGR [5mer-636],11
16,RFSHR [5mer-632],33
17,KMHAR [5mer-939],24
18,KCDHK [5mer-637],28
19,RHKDK [5mer-645],20
20,RMKWK [5mer-644],24
21,KDWIR [5mer-947],27
22,KHDGR [5mer-643],28
23,KCMGK [5mer-940],18
24,KHTVK [5mer-647],29
25,RAWDR [5mer-642],22
26,RYEKR [5mer-945],23
27,RIEFK [5mer-938],18

# Further lines, results first:
row,Binding affinity (RU),Binder
1,32,KYPWR [5mer-946]
2,32,RETFK [5mer-935]
3,12,KDKGK [5mer-943]
4,33,KHCIR [5mer-638]
5,17,KMMMR [5mer-934]
6,32,RPTNK [5mer-629]
7,21,KASNR [5mer-937]
8,25,RYEFK [5mer-944]
9,29,RNHKR [5mer-936]
10,20,RAAKR [5mer-633]
11,21,RMNGR [5mer-635]
12,11,RPSDR [5mer-942]
13,27,KHMVR [5mer-928]
14,28,KYTFR [5mer-929]

# Biological target: acetylcholine receptor
# Test: SPR, AchR immobilized on chip
row,Binder,Binding affinity (relative to RRQRR) (relative value to the RRQRR sequence)
1,IRRQRR,121
2,RRQRRL,141
3,RRQRRP,137
4,ARRQRR,129
5,LRRQRR,144
6,RRQRRA,113
7,PRRQRR,133
8,GRRQRR,132
9,RRQRRC,126

# Results, then the binder that gave them:
row,Binding affinity (relative to RRQRR) (relative value to the RRQRR sequence),Binder
1,120,RRQRRV
2,123,CRRQRR
3,109,RRQRRG
4,135,VRRQRR
